One block for each substance: values may come before it.
Columns and labels:
[1] = biological target: MDC1 (UniProt Q14676); assay: biotin-peptide pull-down, Western blot; details: reference: unphosphorylated S139 peptide; sites S139
[2] = biological target: Pellino 2 (PELI2) FHA domain, 1-275 (UniProt Q9HAT8); assay: biotin-peptide pull-down, stained gel
[3] = biological target: RNF8 (UniProt O76064); assay: biotin-peptide pull-down, Western blot
[4] = biological target: Pellino 1 (PELI1) (UniProt Q96FA3); assay: biotin-peptide pull-down, LC-MS/MS; details: reference: unphosphorylated T752 peptide; sites T752
[5] = biological target: Pellino 2 (PELI2) (UniProt Q9HAT8); assay: biotin-peptide pull-down, LC-MS/MS; details: reference: unphosphorylated T752 peptide; sites T752
[6] = biological target: RNF8 (UniProt O76064); assay: biotin-peptide pull-down, LC-MS/MS; details: reference: unphosphorylated T752 peptide; sites T752
[7] = reference: unphosphorylated T752 peptide, sites T752
[8] = reference: unphosphorylated T719 peptide, sites T719

Substance: H2AX (from UniProt P16104) pS139 peptide
binding against the reference [1]: stronger

Substance: MDC1 743-757 (from UniProt Q14676) pT752 peptide
binding against the reference [2, 7]: gained
binding against the reference [3, 7]: stronger
binding against the reference [4]: gained
binding against the reference [5]: gained
binding against the reference [6]: gained

Substance: MDC1 (from UniProt Q14676) pT765 peptide
binding against the reference ([3]; reference: unphosphorylated T765 peptide, sites T765): stronger

The remaining lines, values ahead:

binding against the reference ([3]; reference: unphosphorylated T699 peptide, sites T699): stronger
Substance: MDC1 (from UniProt Q14676) pT699 peptide

binding against the reference [2, 8]: gained
binding against the reference [3, 8]: stronger
Substance: MDC1 (from UniProt Q14676) pT719 peptide
